Reference: patent US20230250438

Target: Transferrin receptor (TfR) (Mus musculus) (UniProt Q62351)
Test: pulldown
Settings: B = Bn-dU, unit not given

Sequence of Transferrin receptor (TfR) (Mus musculus) (Q62351 89-763): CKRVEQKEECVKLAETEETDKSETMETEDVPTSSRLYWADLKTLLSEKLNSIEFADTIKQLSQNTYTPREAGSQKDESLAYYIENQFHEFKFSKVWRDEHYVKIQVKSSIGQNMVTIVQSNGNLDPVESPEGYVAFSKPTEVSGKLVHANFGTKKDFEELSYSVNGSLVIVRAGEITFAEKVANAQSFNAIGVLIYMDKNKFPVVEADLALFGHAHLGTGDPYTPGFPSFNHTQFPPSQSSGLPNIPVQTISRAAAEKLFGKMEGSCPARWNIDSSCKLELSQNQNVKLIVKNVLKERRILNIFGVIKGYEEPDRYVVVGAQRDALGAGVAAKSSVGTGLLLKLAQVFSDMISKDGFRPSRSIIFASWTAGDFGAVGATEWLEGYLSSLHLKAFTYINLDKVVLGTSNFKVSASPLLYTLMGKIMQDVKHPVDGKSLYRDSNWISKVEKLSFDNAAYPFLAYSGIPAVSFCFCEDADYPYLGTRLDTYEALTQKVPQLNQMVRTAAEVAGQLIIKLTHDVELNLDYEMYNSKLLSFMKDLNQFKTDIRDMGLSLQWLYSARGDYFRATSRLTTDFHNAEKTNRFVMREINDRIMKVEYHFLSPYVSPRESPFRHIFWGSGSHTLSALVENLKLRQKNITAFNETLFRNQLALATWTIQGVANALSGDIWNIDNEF

Sequence: GAATTCAAAAGTGTCGGTGATTTGCCTCGTCGCTCCAATGT [CMe 2]
- Kd (2'-OMe at C15 [Bn-dU: 4,5,12,14,18,21,22,23,27,30,34,39,41, 2'-OMe: 15], SB18, 5 mM MgCl2, 37 C): 11.4

Sequence: GAATTCAAAAGTGUCGGTGATTTGCCTCGTCGCTCCAATGT [UMe 4]
- Kd (2'-OMe-U at 14 [Bn-dU: 4,5,12,18,21,22,23,27,30,34,39,41, 2'-OMe-U: 14], Table 10 ratio 0.17): 32.4

Sequence: GAAUTCAAAAGTGTCGGTGATTTGCCTCGTCGCTCCAATGT [UMe 1]
- Kd (2'-OMe-U at 4 [2'-OMe-U: 4, Bn-dU: 5,12,14,18,21,22,23,27,30,34,39,41], Table 10 ratio 0.13): 42.6

Sequence: GAATTCAAAAGTGTCGGTGATTTGCCTCGTCGCTCCAATGT [CMe 8]
- Kd (2'-OMe at C35 [Bn-dU at 4,5,12,14,18,21,22,23,27,30,34,39,41, 2'-OMe at C35], SB18, 5 mM MgCl2, 37 C): 8.46

Sequence: GAATTCAAAAGTGTCGGTGATTTGCCTCGTCGCTCCAATGT [CMe 7]
- Kd (2'-OMe at C33 [Bn-dU at 4,5,12,14,18,21,22,23,27,30,34,39,41, 2'-OMe at C33], Table 11 ratio 3.36 (improved)): 0.363

Sequence: GAATTCAAAAGTGTCGGTGATTTGCCTCGTCGCTCCAAUGT [UMe 12]
- Kd (2'-OMe-U at 39 [Bn-dU: 4,5,12,14,18,21,22,23,27,30,34,41, 2'-OMe-U: 39], SB18, 5 mM MgCl2, 37 C): 28

Sequence: GAATTCAAAAGTGTCGGTGATUTGCCTCGTCGCTCCAATGT [UMe 7]
- Kd (2'-OMe-U at 22 [Bn-dU: 4,5,12,14,18,21,23,27,30,34,39,41, 2'-OMe-U: 22], Table 11 ratio 2.51 (improved)): 1.84

Sequence: GAATTCAAAAGTGTCGGTGATTTGCCTCGTCGCUCCAATGT [UMe 11]
- Kd (2'-OMe-U at 34 [Bn-dU: 4,5,12,14,18,21,22,23,27,30,39,41, 2'-OMe-U: 34], SB18, 5 mM MgCl2, 37 C): 17.8

Sequence: GAATTCAAAAGTGTCGGTGATTTGCCTCGTCGCTCCAATGT [GMe 2]
- Kd (2'-OMe at G11 [Bn-dU: 4,5,12,14,18,21,22,23,27,30,34,39,41, 2'-OMe-G: 11], SB18, 5 mM MgCl2, 37 C): 9.67

Sequence: GAATTCAAAAGTGTCGGTGATTTGCCTCGTCGCTCCAATGT [CMe 3]
- Kd (2'-OMe at C25 [Bn-dU: 4,5,12,14,18,21,22,23,27,30,34,39,41, 2'-OMe: 25], SB18, 5 mM MgCl2, 37 C): 11.1

Sequence: GAATUCAAAAGTGTCGGTGATTTGCCTCGTCGCTCCAATGT [UMe 2]
- Kd (2'-OMe-U at 5 [2'-OMe-U: 5, Bn-dU: 4,12,14,18,21,22,23,27,30,34,39,41], Table 10 ratio 0.10): 56.4

Sequence: GAATTCAAAAGTGTCGGTGATTTGCCTCGUCGCTCCAATGT [UMe 10]
- Kd (2'-OMe-U at 30 [Bn-dU: 4,5,12,14,18,21,22,23,27,34,39,41, 2'-OMe-U: 30], SB18, 5 mM MgCl2, 37 C): 25.2

Sequence: GAATTCAAAAGTGTCGGTGATTTGCCTCGTCGCTCCAATGT [GMe 8]
- Kd (2'-OMe at G29 [Bn-dU: 4,5,12,14,18,21,22,23,27,30,34,39,41, 2'-OMe: 29], SB18, 5 mM MgCl2, 37 C): 5.39

Sequence: GAATTCAAAAGTGTCGGTGATTTGCCTCGTCGCTCCAATGT [CMe 9]
- Kd (2'-OMe at C36 [Bn-dU at 4,5,12,14,18,21,22,23,27,30,34,39,41, 2'-OMe at C36], SB18, 5 mM MgCl2, 37 C): 7.66

Sequence: GAATTCAAAAGTGTCGGTGATTTGCCTCGTCGCTCCAATGT [CMe 4]
- Kd (2'-OMe at C26 [Bn-dU: 4,5,12,14,18,21,22,23,27,30,34,39,41, 2'-OMe: 26], SB18, 5 mM MgCl2, 37 C): 6.94

Sequence: GAATTCAAAAGTGTCGGTGATTTGCCTCGTCGCTCCAATGU [UMe 13]
- Kd (2'-OMe-U at 41 [Bn-dU: 4,5,12,14,18,21,22,23,27,30,34,39, 2'-OMe-U: 41], SB18, 5 mM MgCl2, 37 C): 22.8

Sequence: GAATTCAAAAGTGTCGGTGATTTGCCUCGTCGCTCCAATGT [UMe 9]
- Kd (2'-OMe-U at 27 [Bn-dU: 4,5,12,14,18,21,22,23,30,34,39,41, 2'-OMe-U: 27], SB18, 5 mM MgCl2, 37 C): 18.3

Sequence: GAATTCAAAAGTGTCGGTGATTTGCCTCGTCGCTCCAATGT [GMe 4]
- Kd (2'-OMe at G16 [Bn-dU: 4,5,12,14,18,21,22,23,27,30,34,39,41, 2'-OMe: 16], SB18, 5 mM MgCl2, 37 C): 6.33
